Reference: patent US20200087380A1 (Chugai, published 2020)
Numbering of substitutions follows the chain as printed. Names and notes keep the numbering of the source. Values joined by “and” are separate entries in the source; they are usually repeats but may differ in a detail not shown here. Equal entries are not always repeated.

T1: hIL6R (human, UniProt P08887 20-357, limits assumed)
T1 construct: Printed as hIL6R
T1 sequence (looked up): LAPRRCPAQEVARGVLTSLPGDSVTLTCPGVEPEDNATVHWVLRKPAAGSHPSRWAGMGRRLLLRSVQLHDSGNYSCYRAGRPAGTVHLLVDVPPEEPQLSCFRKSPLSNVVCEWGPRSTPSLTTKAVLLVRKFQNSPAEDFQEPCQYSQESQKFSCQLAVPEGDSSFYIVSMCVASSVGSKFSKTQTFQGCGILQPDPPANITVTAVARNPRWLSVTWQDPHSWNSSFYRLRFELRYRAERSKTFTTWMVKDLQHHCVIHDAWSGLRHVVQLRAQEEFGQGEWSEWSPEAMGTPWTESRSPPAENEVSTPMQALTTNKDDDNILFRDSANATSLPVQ

B1: anti-GPC3 antibody with H chain constant region TH13 (K147E, Q175E) and L chain constant region TL16 (T180K, S131K, Q160K) (antibody, human IgG1, kappa)
heavy: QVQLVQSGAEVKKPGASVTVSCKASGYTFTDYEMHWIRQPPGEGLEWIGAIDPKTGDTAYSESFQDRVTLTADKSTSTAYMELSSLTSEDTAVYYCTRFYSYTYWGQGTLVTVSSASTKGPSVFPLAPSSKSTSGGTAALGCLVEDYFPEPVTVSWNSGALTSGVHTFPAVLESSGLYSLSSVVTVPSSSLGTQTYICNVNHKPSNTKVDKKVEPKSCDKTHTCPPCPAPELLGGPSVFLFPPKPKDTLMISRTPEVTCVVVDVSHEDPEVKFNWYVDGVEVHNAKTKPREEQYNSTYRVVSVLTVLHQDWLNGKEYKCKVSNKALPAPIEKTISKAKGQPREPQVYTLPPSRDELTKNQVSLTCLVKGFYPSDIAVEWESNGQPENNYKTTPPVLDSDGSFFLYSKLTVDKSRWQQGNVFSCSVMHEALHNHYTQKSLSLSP
light: DIVMTQSPLSLPVTPGEPASISCQASESLVHSNRNTYLHWYLQKPGQSPQLLIYKVSNRFSGVPDRFSGSGSGTDFTLKISRVEAEDVGVYYCSQNTHVPPTFGQGTKVEIERTVAAPSVFIFPPSDEQLKSGTAKVVCLLNNFYPREAKVQWKVDNALQSGNSKESVTEQDSKDSTYSLSSTLKLSKADYEKHKVYACEVTHQGLSSPVTKSFNRGEC
notes: IgG1/kappa; also called TH13/TL16
B2: anti-GPC3 antibody with H chain constant region G1d and L chain constant region k0 (GpH7-G1d / GpL16-k0) (antibody, human IgG1, kappa)
heavy: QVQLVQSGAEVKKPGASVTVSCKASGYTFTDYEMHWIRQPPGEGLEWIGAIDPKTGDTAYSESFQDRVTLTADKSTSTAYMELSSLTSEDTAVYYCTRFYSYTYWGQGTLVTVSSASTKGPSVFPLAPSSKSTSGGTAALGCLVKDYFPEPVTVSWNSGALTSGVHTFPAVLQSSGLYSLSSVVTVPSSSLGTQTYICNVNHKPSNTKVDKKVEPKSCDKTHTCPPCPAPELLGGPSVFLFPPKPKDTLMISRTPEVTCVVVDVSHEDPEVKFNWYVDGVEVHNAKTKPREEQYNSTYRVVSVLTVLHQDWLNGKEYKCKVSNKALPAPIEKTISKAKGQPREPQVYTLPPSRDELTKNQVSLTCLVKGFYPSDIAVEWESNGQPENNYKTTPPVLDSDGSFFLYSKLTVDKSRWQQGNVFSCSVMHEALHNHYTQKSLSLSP
light: B1 light with K136S, K165Q, K185T
notes: IgG1/kappa; also called G1d/k0; native G1d/k0
B3: anti-GPC3 antibody with H chain constant region TH15 (K147E, Q175E, K213E) and L chain constant region TL19 (T180K, S131K, Q160K, E123K) (antibody, human IgG1, kappa)
heavy: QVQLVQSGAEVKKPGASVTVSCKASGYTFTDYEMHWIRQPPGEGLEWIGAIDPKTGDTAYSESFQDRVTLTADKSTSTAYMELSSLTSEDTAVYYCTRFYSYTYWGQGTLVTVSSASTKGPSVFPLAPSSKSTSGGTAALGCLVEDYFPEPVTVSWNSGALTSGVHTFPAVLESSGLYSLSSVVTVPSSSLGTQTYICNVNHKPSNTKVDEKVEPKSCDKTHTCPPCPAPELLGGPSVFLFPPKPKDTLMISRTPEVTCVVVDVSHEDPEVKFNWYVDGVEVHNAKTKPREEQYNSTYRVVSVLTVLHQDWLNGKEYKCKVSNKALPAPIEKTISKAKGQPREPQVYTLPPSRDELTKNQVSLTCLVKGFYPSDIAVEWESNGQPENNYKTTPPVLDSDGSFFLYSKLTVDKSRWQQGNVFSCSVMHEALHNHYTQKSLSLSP
light: B1 light with E128K
notes: IgG1/kappa; also called TH15/TL19
B4: anti-GPC3 antibody with H chain constant region TH2 (Q175K) and L chain constant region TL17 (T180E, S131E, Q160E) (antibody, human IgG1, kappa)
heavy: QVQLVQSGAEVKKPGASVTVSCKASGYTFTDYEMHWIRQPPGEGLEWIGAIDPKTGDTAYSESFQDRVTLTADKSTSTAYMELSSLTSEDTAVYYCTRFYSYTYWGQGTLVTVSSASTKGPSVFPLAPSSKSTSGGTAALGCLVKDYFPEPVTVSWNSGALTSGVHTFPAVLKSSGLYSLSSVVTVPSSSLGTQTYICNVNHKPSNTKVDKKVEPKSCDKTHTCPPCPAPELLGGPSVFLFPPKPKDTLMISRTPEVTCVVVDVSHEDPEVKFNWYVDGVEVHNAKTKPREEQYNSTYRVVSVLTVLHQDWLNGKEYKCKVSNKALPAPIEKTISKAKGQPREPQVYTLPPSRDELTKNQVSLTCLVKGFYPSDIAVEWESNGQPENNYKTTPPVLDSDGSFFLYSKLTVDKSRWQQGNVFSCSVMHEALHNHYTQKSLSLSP
light: B1 light with K136E, K165E, K185E
notes: IgG1/kappa; also called TH2/TL17
B5: 4ch_004 (anti-IL6R MH0-TH2k/ML0-TL17 and anti-GPC3 GpH7-TH13h/GpL16-TL16; KiH + CH1/CL_1) (bispecific antibody, human IgG1, kappa)
heavy 1: not shown
light 1: not shown
heavy 2: not shown
light 2: B1 light
notes: IgG1/kappa bispecific with knob (k) and hole (h) H chains
B6: 4ch_001 (anti-IL6R MH0-G1d/ML0-k0 and anti-GPC3 GpH7-G1d/GpL16-k0, no CH1/CL or KiH modification) (bispecific antibody, human IgG1, kappa)
heavy 1: not shown
light 1: not shown
heavy 2: not shown
light 2: B1 light with K136S, K165Q, K185T
notes: Four chains co-expressed without pairing control
B7: 4ch_010 (anti-IL6R MH0-TH15k/ML0-TL19 and anti-GPC3 GpH7-TH2h/GpL16-TL17; KiH + CH1/CL_2) (bispecific antibody, human IgG1, kappa)
heavy 1: not shown
light 1: not shown
heavy 2: not shown
light 2: B1 light with K136E, K165E, K185E
notes: as for B5
B8: 4ch_006 (anti-IL6R MH0-TH2k/ML0-TL17 and anti-GPC3 GpH7-TH15h/GpL16-TL19; KiH + CH1/CL_2) (bispecific antibody, human IgG1, kappa)
heavy 1: not shown
light 1: not shown
heavy 2: not shown
light 2: B1 light with E128K
notes: as for B5
B9: 4ch_008 (anti-IL6R MH0-TH13k/ML0-TL16 and anti-GPC3 GpH7-TH2h/GpL16-TL17; KiH + CH1/CL_1) (bispecific antibody, human IgG1, kappa)
heavy 1: not shown
light 1: not shown
heavy 2: not shown
light 2: B1 light with K136E, K165E, K185E
notes: as for B5

What follows are binders tested against T2, GPC3 (UniProt P51654 25-563, limits assumed) (assay: SPR (Biacore T100), antibody captured on Protein A/G chip, antigen as analyte, 25 C, 1:1 Langmuir fit).
T2 construct: also called glypican-3
T2 sequence (P51654 25-563 limits assumed): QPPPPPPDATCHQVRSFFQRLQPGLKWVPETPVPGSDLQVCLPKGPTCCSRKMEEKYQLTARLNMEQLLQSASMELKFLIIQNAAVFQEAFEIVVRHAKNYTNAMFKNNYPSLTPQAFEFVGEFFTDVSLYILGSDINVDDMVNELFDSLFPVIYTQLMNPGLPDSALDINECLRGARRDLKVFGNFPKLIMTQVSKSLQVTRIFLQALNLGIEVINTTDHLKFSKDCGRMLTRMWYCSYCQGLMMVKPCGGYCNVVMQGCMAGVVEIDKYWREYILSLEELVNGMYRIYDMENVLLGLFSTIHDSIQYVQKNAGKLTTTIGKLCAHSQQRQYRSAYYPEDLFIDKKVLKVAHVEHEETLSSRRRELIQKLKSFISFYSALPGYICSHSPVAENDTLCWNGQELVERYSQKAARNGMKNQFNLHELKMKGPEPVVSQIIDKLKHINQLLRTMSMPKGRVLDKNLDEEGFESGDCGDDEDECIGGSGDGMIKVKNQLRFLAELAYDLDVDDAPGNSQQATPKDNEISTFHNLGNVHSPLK
Description: (§1) Interactions between a target antibody and hIL6R or GPC3 were analyzed using Biacore T100 (GE Healthcare). HBS-EP+(GE Healthcare) was used for the running buffer, and the measurement temperature was 25° C. Protein A/G (Thermo Scientific) was immobilized on the Series S Sensor Chip CMS (GE Healthcare) by amine coupling, and was used as a chip. A target antibody was captured onto the chip, and interacted with each antigen diluted with running buffer. Antibodies captured on the chip were washed off by reacting with 10 mM glycine-HCl (pH 1.5) to regenerate the chip to be used repeatedly.
(§2) More specifically, the association rate constant ka (L/mol/s) and dissociation rate constant kd (1/s) were calculated by global fitting sensorgrams obtained by measuring with the Biacore Evaluation Software in a 1:1 Langmuir binding model, followed by calculation of dissociation constant KD (mol/L) from those values.

Kd	koff	kon	Binder
1.5 nM	0.0004 s⁻¹	270000 M⁻¹ s⁻¹	B1
1.3 nM	0.00036 s⁻¹	270000 M⁻¹ s⁻¹	B2
0.99 nM	0.00038 s⁻¹	390000 M⁻¹ s⁻¹	B3
1.4 nM	0.00039 s⁻¹	280000 M⁻¹ s⁻¹	B4

The binders below were run against T1, hIL6R in the same assay as above.
Description: as §1, §2

Kd	koff	kon	Binder
2.8 nM	0.00047 s⁻¹	170000 M⁻¹ s⁻¹	B5
2.6 nM and 2.8 nM	0.00041 s⁻¹	150000 M⁻¹ s⁻¹	B6
2.4 nM	0.00059 s⁻¹	240000 M⁻¹ s⁻¹	B7
2.2 nM	0.00043 s⁻¹	200000 M⁻¹ s⁻¹	B8
2.8 nM	0.00046 s⁻¹	160000 M⁻¹ s⁻¹	B9

Target: T2, GPC3
Experiment: as above
Remark: another data set of the same source
Description: as §1, §2

Kd	koff	kon	Binder
1.4 nM	0.00038 s⁻¹	270000 M⁻¹ s⁻¹	B5
1.3 nM	0.00036 s⁻¹	270000 M⁻¹ s⁻¹	B6
1.4 nM	0.00041 s⁻¹	290000 M⁻¹ s⁻¹	B7
1.2 nM	0.00042 s⁻¹	340000 M⁻¹ s⁻¹	B8
1.5 nM	0.00039 s⁻¹	260000 M⁻¹ s⁻¹	B9
